Measurements published in PMC11974935 (bioRxiv, 2025).

Biological target: the molecule itself
Experiment: mass photometry

B1: full-length, wild-type Cdc13 (natural protein, S. cerevisiae, UniProt P32797 1-924, looked up)
chain: MDTLEEPECPPHKNRIFVSSSKDFEGYPSKAIVPVQFVALLTSIHLTETKCLLGFSNFERRGDQSQEDQYLIKLKFKDRGSERLARITISLLCQYFDIELPDLDSDSGASPTVILRDIHLERLCFSSCKALYVSKHGNYTLFLEDIKPLDLVSVISTISTKSTNSSKHSSSELISECDLNNSLVDIFNNLIEMNRDEKNRFKFVKLIHYDIELKKFVQDQQKVLSQKSKAAAINPFFVPNRLGIPYIESQNEFNSQLMTLNVDEPTTDISNMGEEMHDSADPIEDSDSSTTSSTGKYFSSKSYIQSQTPERKTSVPNNWHDDDSGSKRKRKLSFHSPNASSIRKAISYEQLSLASVGSVERLEGKIVGMNPPQFASINEFKYCTLKLYFTQLLPNVPDKVLVPGVNCIEIVIPTRERICELFGVLNCQSDKISDILLLEKPDRISVEVERILWDNDKTASPGMAVWSLKNISTDTQAQAQVQVPAQSSASIDPSRTRMSKMARKDPTIEFCQLGLDTFETKYITMFGMLVSCSFDKPAFISFVFSDFTKNDIVQNYLYDRYLIDYENKLELNEGFKAIMYKNQFETFDSKLRKIFNNGLRDLQNGRDENLSQYGIVCKMNIKVKMYNGKLNAIVRECEPVPHSQISSIASPSQCEHLRLFYQRAFKRIGESAISRYFEEYRRFFPIHRNGSHLAKLRFDEVKHEPKKSPTTPALAEHIPDLNADVSSFDVKFTDISSLLDSSARLPRPQQTHKSNTLYSCEGRIIAIEYHASDLCFHITNELPLLQTRGLAPERVLQLHIITSKNFAYFFNRSSAYLQRQPLEEKYTQLAQFLGHSFKFNITSSLTLFPDTTVALQIWCPIECTFRELQQQLAHPKVAAAPDSGSLDCAINATVNPLRLLAAQNGVTVKKEEDNDDDAGAVPTS
stoichiometry N: 2
